These results are taken from patent US20240002497A1 (Merck Sharp & Dohme, published 2024).

First the molecules themselves.
B1: F010302337 (VHH)
VHH: EVQLVESGGGVVQPGGSLRLSCAASHRQFIRDVFTGWYRRAPGKQRELVARIYEGGNTQYADSAKGRFTISRDNAKKTVYLQMNSLRPEDTALYYCLFSGTISTGREYRSGDYWGQGTLVTVSS
B2: F010302355 (VHH)
VHH: B1 VHH with Q28A, A64V
B3: F010302347 (VHH)
VHH: B1 VHH with Q28A, R40Q
B4: F010302339 (VHH)
VHH: B1 VHH with Q28A
B5: F010301939 (VHH)
VHH: EVQLVESGGGVVQPGGSLRLSCATTSRAFIRDVFTGWYRRVPGKERELVARIYNGGNTNYADFAKGRFSISRDNAKKMVTLRMSNLRPEDTALYYCLFSGTINTGREYRSGDYWGQGTLVTVSS
notes: also called F0103464B09(L11V, K83R, G88A, V89L)
B6: F010300316 (VHH)
VHH: EVQLVESGGGLVQPGGSLRLSCAASGSIFNINSMAWYRRAPGKQRELVASSTNGGSWNYADSVKGRFTISRDNAKRVYLQMNSLTPEDTAVYYCNALLQPSIYDISRTYWGQGTLVTVSS
notes: vs F0103275B05: T57W
B7: F010301565 (VHH)
VHH: EVQLVESGGGLVQAGGSLRLSCDASGRILRIGYMRWHRQGAGKQREFVARITGDSATGYADSVKGRFTISRDNAKNTVYLQMNNLNPEDTAVYYCEALVTASVRGGSIHSGTYWGRGTLVTVSS
notes: vs 387G05: D53G, D58G
B8: F010301557 (VHH)
VHH: B7 VHH with D23A, D54G, G58D
notes: vs 387G05: D23A, D53G, D54G
B9: F010301367 (VHH)
VHH: B7 VHH with G58D
notes: vs 387G05: D53G
B10: F010301560 (VHH)
VHH: B7 VHH with D54G
notes: vs 387G05: D53G, D54G, D58G
B11: F010301372 (VHH)
VHH: B7 VHH with G53D, G58D, S107G
notes: vs 387G05: S100dG
B12: F010301346 (VHH)
VHH: B7 VHH with G53D
notes: vs 387G05: D58G
B13: F010301561 (VHH)
VHH: B7 VHH with D23A, G58D
notes: vs 387G05: D23A, D53G
B14: F010301445 (VHH)
VHH: B7 VHH with G53D, G58D, S107Y
notes: vs 387G05: S100dY
B15: F010301556 (VHH)
VHH: B7 VHH with D23A, D54G
notes: also called F0103387G05(D23A, D53G, D54G, D58G)
B16: F010301558 (VHH)
VHH: B7 VHH with D23A
notes: vs 387G05: D23A, D53G, D58G
B17: F010301559 (VHH)
VHH: B7 VHH with D23A, G53D, D54G
notes: vs 387G05: D23A, D54G, D58G
B18: F010301344 (VHH)
VHH: B7 VHH with G53D, D54G, G58D
notes: vs 387G05: D54G
B19: F010301562 (VHH)
VHH: B7 VHH with D23A, G53D, D54G, G58D
notes: vs 387G05: D23A, D54G
B20: F010301563 (VHH)
VHH: B7 VHH with D23A, G53D
notes: also called F0103387G05(D23A, D58G); F0103301563
B21: F010301314 (VHH)
VHH: B7 VHH with D23A, G53D, G58D
notes: vs 387G05: D23A
B22: F010301350 (VHH)
VHH: B7 VHH with G53D, G58V
notes: vs 387G05: D58V
B23: F010301566 (VHH)
VHH: B7 VHH with G53D, D54G
notes: vs 387G05: D54G, D58G
B24: F010301564 (VHH)
VHH: B7 VHH with D54G, G58D
notes: vs 387G05: D53G, D54G
B25: F010301556 (VHH)
VHH: B7 VHH with D23A, D54G
notes: as for B15
B26: F010301563 (VHH)
VHH: B7 VHH with D23A, G53D
notes: also called F0103387G05(D23A, D58G)
B27: F010301849 (VHH)
VHH: B7 VHH with L11V, A14P, D23A, G40A, A41P, G53D, N84S, N86R, V92L, R116Q
notes: also called F0103387G05(L11V, A14P, D23A, G40A, A41P, D58G, N82bS, N83R, V89L, R105Q)

Positions count from the first letter of the chain named. In names and notes the source's numbering stands.

One experiment has as its target T1, huNav1.7α + β1-β2-β3 (human, UniProt Q15858 1-1988; A5A6L6 19-218; O60939 30-215; Q2KI11 23-215).
T1 construct: also called huNav1.7-beta1-beta2-beta3; huNav1.7-β1-β2-β3
Description: binding FACS, CHO FlpIn. The procedure, abridged:
(§1)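 FLAG3-tagged ISVD, 30 min, 4° C, FACS buffer (PBS/10% FBS/NaN₃); 1×10^5 cells/well; detection murine anti-Flag; PI 1 μg/mL live gate; washes between steps.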
What is called EC50 is the concentration at which the effect is half-maximal. With B1, the Bmax was found to be 100% and the EC50 turned out to be 3.9 nM.
The like results for B2 were, in that order, 100% and 3.5 nM.
The like results for B3 were, in that order, 100% and 4.6 nM.
For B4, in that order: 100% and 4.3 nM.
As to B5, the Bmax is 96% and the concentration for a half-maximal effect (EC50) was 5.1 nM.

Another experiment has as its target T2, rhNav1.7α + β1-β2-β3 (rhesus monkey).
T2 construct: also called rhNav1.7-beta1-beta2-beta3; rhNav1.7-β1-β2-β3
As to the kind of experiment: binding FACS, CHO FlpIn. Summed up:
as §1
Take B1: the Bmax was found to be 100% and the EC50 was determined as 6.8 nM.
The like results for B2 were, in that order, 97% and 6.8 nM.
For the molecule B3, the Bmax amounted to 100% and the EC50 is 9.6 nM.
With B4, the Bmax stood at 100% and the EC50 turned out to be 6.8 nM.
As to B5, the EC50 came out at 22 nM.

The target of the next experiment is T3, huNav1.7α (human, UniProt Q15858 1-1988). Description: cell-based or functional assay.
For the molecule B6, the “2-pulse IC50 [M], P1” value is 2e-06 M and the “2-pulse IC50 [M], P2” value turned out to be 1e-06 M.

A further experiment addresses rhNav1.7α (rhesus monkey, UniProt Q15858 1-1988 (human entry)). As to the kind of experiment: cell-based or functional assay.
For B6, the “2-pulse IC50 [M], P1” value came to 5e-06 M and the “2-pulse IC50 [M], P2” value turned out to be 4e-06 M.

The target of the next experiment is T4, huNav1.7α+β1 (human, UniProt Q15858 1-1988; Q07699 19-218).
T4 construct: also called huNav1.7-beta1; HEKa/β1
Description: binding FACS, HEKa/β1 cells. How it is done: (§2) Binding of the ISVDs to cell-expressed Nav1.7α was detected via murine anti-Flag (Sigma, catalog #F1804). Briefly, cells were resuspended in FACS buffer (PBS, 10% FBS, NaN₃) and transferred to a 96-well V-bottom plate at 1×10^5 cells/well. Purified FLAG3-tagged ISVD was diluted in FACS buffer and added to the cells for 30 minutes at 4° C. […] Prior to the read-out, the samples were resuspended in 1 μg/mL propidium iodide (Sigma, catalog #P4170) to exclude dead cells. Between each step, the cells were centrifuged for 5 minutes at 200 grams and washed with 100 μL/well FACS buffer.
Turning to B7, the EC50 came out at 1 nM.
Still for that read-out and setting: to B8 belongs 2.1 nM.
The molecule B9 showed a concentration giving a half-maximal response (EC50) of 1.9 nM.
Same read-out and setting: next, B10: 1.1 nM; B11: 2.3 nM.
B12 showed a half-maximal effective concentration (EC50) of 1.6 nM.
Same read-out and setting: to B13 belongs 1.2 nM; to B14, 2 nM; to B15, 1.4 nM.
On the same count and under the same terms, to B16 belongs 0.93 nM; to B17, 0.92 nM; to B18, 2.1 nM.
Turning to B19, the response was half-maximal at 1.9 nM (EC50).
Turning to B20, a half-maximal response (EC50) required 1 nM.
Take B21: the EC50 is 1.8 nM.
B22 displayed an EC50 of 1.7 nM.
In the case of B23, the EC50 amounted to 1 nM.
Still for that read-out and setting: to B24 belongs 2.4 nM.

The target of another experiment is T5, rhNav1.7α+β1-β2-β3 (rhesus monkey α subunit with human β …).
T5 construct: P2A cleaves it into α, β1, β2, β3; also called rhNav1.7-beta1-beta2-beta3
Description: binding FACS, CHO FlpIn cells.
With B6, the response was half-maximal at 170 nM (EC50).

The next experiment addresses T6, huNav1.7α + β1 (human Nav1.7α co-expressed with Navβ1) (human, UniProt Q15858 1-1988; Q07699 19-218).
T6 construct: also called HEK293 human Nav1.7α + β1; HEKa/β1 Nav1.7α
Description: binding FACS, HEKa/β1 cells.
For the molecule B25, the EC50 is 1.4 nM.
Regarding B26, the concentration giving a half-maximal response (EC50) is 1 nM.
Still for that read-out and setting: next, B27: 1.8 nM.

The next experiment deals with T3, huNav1.7α. As to the kind of experiment: binding FACS, HEKa cells. How it is done: as §2
Turning to B7, the EC50 was determined as 1.4 nM.
Take B8: the half-maximal effective concentration (EC50) was determined as 2 nM.
In turn, B9 had a 50% effective concentration (EC50) of 2.2 nM.
In turn, B10 showed a concentration for a half-maximal effect (EC50) of 1.2 nM.
Still for that read-out and setting: to B11 belongs 2.5 nM; to B12, 1.5 nM.
On the same count and under the same terms, to B13 belongs 2.2 nM; to B14, 2.3 nM.
For the molecule B15, the EC50 is 1.8 nM.
Molecule B16 had an EC50 of 1.5 nM.
The same measure, in the same setting: next, B17: 0.87 nM.
Regarding B18, the response was half-maximal at 1.3 nM (EC50).
In turn, B19 returned an EC50 of 1.2 nM.
Consider B20, for which the concentration for a half-maximal effect (EC50) was 1.5 nM.
B21: it took 1.9 nM to reach a half-maximal effect (EC50).
The same measure, in the same setting: next, B22: 1.6 nM.
Still for that read-out and setting: next, B23: 1.2 nM; B24: 1.9 nM.

In the next experiment the target is T7, muNav1.7α (murine, UniProt Q62205 1-1984).
T7 construct: HEK JmpIn cells; also called murine Nav1.7α
Description: binding FACS, HEK JmpIn. How it is done: as §2
Molecule B1 registered a Bmax of 74%.
In turn, B2 came in with a Bmax of 30% and an EC50 of 21 nM.
As for B3, the Bmax amounted to 48% and a half-maximal response (EC50) required 14 nM.
Turning to B4, the Bmax is 61% and the EC50 was determined as 8.7 nM.
With B5, the 50% effective concentration (EC50) came out at 6.3 nM.

The target of the next experiment is T8, huNav1.7α (human Nav1.7 alpha subunit, expressed without β subunits) (human, UniProt Q15858 1-1988).
T8 construct: also called HEK293 human Nav1.7α; HEKa Nav1.7α
As to the kind of experiment: binding FACS, HEKa cells.
Molecule B25 showed an EC50 of 1.8 nM.
The molecule B26 gave an EC50 of 1.5 nM.
The molecule B27 returned a Bmax of 100% and a concentration for a half-maximal effect (EC50) of 3 nM.

In another experiment the target is T9, huNav1.7α+β1-β2-β3 (human, UniProt Q15858 1-1988; Q07699 19-218; O60939 30-215; Q9NY72 23-215).
T9 construct: 5N11S variant; also called huNav1.7-beta1-beta2-beta3; huNav1.7α+Navβ1-Navβ2-Navβ3
As to the kind of experiment: binding FACS, CHO FlpIn cells. The procedure, abridged:
as §1
B7 gave a concentration for a half-maximal effect (EC50) of 2.1 nM.
The same measure, in the same setting: next, B8: 3.8 nM; B9: 4.2 nM; B10: 2.1 nM.
The same measure, in the same setting: to B11 belongs 4.5 nM.
The same measure, in the same setting: to B12 belongs 3.4 nM; to B13, 2.5 nM.
B14 yielded an EC50 of 4.6 nM.
B15 returned an EC50 of 2.3 nM.
B16: a half-maximal effect (EC50) was put at 1.8 nM.
B17 displayed a concentration for a half-maximal effect (EC50) of 1.8 nM.
Turning to B18, the EC50 stood at 4.2 nM.
Regarding B19, the midpoint of the response, the EC50, lay at 2.5 nM.
B20 yielded an EC50 of 1.9 nM.
Regarding B21, it took 3.5 nM to reach a half-maximal effect (EC50).
B22 displayed a concentration for a half-maximal effect (EC50) of 3.5 nM.
As for B23, a half-maximal response (EC50) required 2.2 nM.
Still for that read-out and setting: to B24 belongs 3.5 nM.
